Laboratory results from PMC11543921 (iScience, 2024).

Target: the molecule itself
Test: MALDI-TOF MS

B1: human recombinant glutamate-oxaloacetate transaminase (enzyme, UniProt P17174 1-413, looked up)
chain: MAPPSVFAEVPQAQPVLVFKLTADFREDPDPRKVNLGVGAYRTDDCHPWVLPVVKKVEQKIANDNSLNHEYLPILGLAEFRSCASRLALGDDSPALKEKRVGGVQSLGGTGALRIGADFLARWYNGTNNKNTPVYVSSPTWENHNAVFSAAGFKDIRSYRYWDAEKRGLDLQGFLNDLENAPEFSIVVLHACAHNPTGIDPTPEQWKQIASVMKHRFLFPFFDSAYQGFASGNLERDAWAIRYFVSEGFEFFCAQSFSKNFGLYNERVGNLTVVGKEPESILQVLSQMEKIVRITWSNPPAQGARIVASTLSNPELFEEWTGNVKTMADRILTMRSELRARLEALKTPGTWNHITDQIGMFSFTGLNPKQVEYLVNEKHIYLLPSGRINVSGLTTKNLDYVATSIHEAVTKIQ
In the case of B1, the “stoichiometry N” value is reported as 2.
